Measured values taken from article doi:10.1101/722512 (bioRxiv, 2019).

Target: the molecule itself
Test: native MS

B1: Erwinia ligand-gated ion channel (ELIC), wild type (natural protein)
chain: APADNAADARPVDVSVSIFINKIYGVNTLEQTYKVDGYIVAQWTGKPRKTPGDKPLIVENTQIERWINNGLWVPALEFINVVGSPDTGNKRLMLFPDGRVIYNARFLGSFSNDMDFRLFPFDRQQFVLELEPFSYNNQQLRFSDIQVYTENIDNEEIDEWWIRKASTHISDIRYDHLSSVQPNQNEFSRITVRIDAVRNPSYYLWSFILPLGLIIAASWSVFWLESFSERLQTSFTLMLTVVAYAFYTSNILPRLPYTTVIDQMIIAGYGSIFAAILLIIFAHHRQAMGVEDDLLIQRCRLAFPLGFLAIGCVLVIRGITL
  stoichiometry N: 5
